Reference: patent EP4772193A1 (Teijin Pharma Limited, dated 2026)
Residue numbers refer to the chain shown, from its start. Numbers in names are those of the source.

T1: recombinant human soluble gpNMB (recombinant human gpNMB-FLAG-His) (human, UniProt Q14956 23-498)
T1 sequence: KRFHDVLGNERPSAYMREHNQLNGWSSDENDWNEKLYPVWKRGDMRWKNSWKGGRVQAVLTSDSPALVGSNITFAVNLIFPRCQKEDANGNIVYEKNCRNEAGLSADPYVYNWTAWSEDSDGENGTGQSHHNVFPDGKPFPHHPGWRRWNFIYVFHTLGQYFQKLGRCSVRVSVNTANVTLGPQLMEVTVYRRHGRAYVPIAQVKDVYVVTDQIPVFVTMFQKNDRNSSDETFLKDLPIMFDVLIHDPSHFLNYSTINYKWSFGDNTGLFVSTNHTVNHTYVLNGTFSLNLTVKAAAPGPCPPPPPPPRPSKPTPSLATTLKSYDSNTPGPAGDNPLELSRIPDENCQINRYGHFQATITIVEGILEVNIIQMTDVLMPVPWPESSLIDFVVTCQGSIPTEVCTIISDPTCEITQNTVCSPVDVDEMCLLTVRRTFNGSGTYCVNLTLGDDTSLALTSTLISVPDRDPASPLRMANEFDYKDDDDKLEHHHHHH

T2: human gpNMB (Human Osteoactivin, His-tag, AcroBioSystems) (human, UniProt Q14956-2 23-486, limits assumed)
T2 sequence (looked up): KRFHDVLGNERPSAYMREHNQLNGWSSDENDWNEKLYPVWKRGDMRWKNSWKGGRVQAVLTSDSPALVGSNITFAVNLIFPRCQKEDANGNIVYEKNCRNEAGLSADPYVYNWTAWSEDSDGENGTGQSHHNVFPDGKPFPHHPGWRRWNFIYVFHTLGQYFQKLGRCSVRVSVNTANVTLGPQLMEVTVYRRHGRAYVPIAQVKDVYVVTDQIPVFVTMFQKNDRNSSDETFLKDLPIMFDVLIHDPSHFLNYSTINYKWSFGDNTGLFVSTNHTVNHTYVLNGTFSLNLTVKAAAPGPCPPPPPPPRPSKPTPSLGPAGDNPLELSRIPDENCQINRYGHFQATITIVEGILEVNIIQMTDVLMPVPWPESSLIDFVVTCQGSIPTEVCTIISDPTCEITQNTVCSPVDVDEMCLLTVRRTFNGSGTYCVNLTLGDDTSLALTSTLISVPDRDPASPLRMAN

B1: hGPN06-1_H1L1 VH D31A (antibody, V domains shown)
VH: QVQLVQSGAEVKKPGASVKVSCKASGYTFTANWMGWVKQRPGQGLEWIGAIDPSDSFTNYNQNFKGRVTMTVDTSISTAYMELSRLRSDDSAVYFCTRSGYYGSPKLGGDYWGQGTLVTVSS
VL: EIVLTQSPSSLSASVGDRVTITCSASSSISYMHWYQQKSGTAPKLLIYSTSNLASGVPSRFSGSGSGTDFTFTISSLQPEDAATYYCHQWNSYPCTFGGGTKLEIK
B2: hGPN06-1_H1L1 VH M34A (antibody, V domains shown)
VH: B1 VH with A31D, M34A
VL: B1 VL
B3: hGPN06-1_H1L1 VH G66A (antibody, V domains shown)
VH: B1 VH with A31D, G66A
VL: B1 VL
B4: hGPN06-1_H1L1 VH D52A (antibody, V domains shown)
VH: B1 VH with A31D, D52A
VL: B1 VL
B5: hGPN06-1_H1L1 VH F29A (antibody, V domains shown)
VH: B1 VH with F29A, A31D
VL: B1 VL
B6: hGPN06-1_H1L1 VH K65A (antibody, V domains shown)
VH: B1 VH with A31D, K65A
VL: B1 VL
B7: hGPN06-1_H1L1 VH G26A (antibody, V domains shown)
VH: B1 VH with G26A, A31D
VL: B1 VL
B8: hGPN06-1_H1L1 VH I51A (antibody, V domains shown)
VH: B1 VH with A31D, I51A
VL: B1 VL
B9: hGPN06-1_H1L1 VH F64A (antibody, V domains shown)
VH: B1 VH with A31D, F64A
VL: B1 VL
B10: hGPN06-1_H1L1 VH F57A (antibody, V domains shown)
VH: B1 VH with A31D, F57A
VL: B1 VL
B11: hGPN06-1_H1L1 VH G35A (antibody, V domains shown)
VH: B1 VH with A31D, G35A
VL: B1 VL
B12: hGPN18-2_H2L3 VL R24A (antibody, V domains shown)
VH: QVQLVQSGPGLVQPTQTLTLTCSFSGFSLSTSVMGVGWIRQPSGKGLEWLADIWWDDDKDYNPSLKSRLTISKDTSKNQVVLTMTNMDTVDTATYYCARTYYSNYEYYGMDYWGQGTLVTVSS
VL: DIVMTQSPDSLAVSLGERATINCASSQTIILSNGNTYLEWYQQKPGQPPKLLIYKVSNRFSGVPDRFSGSGSGTDFTLTISSLQAEDVAVYYCFQGSHVPFTFGSGTKLEIKR
B13: hGPN18-2_H2L3 VL S97A (antibody, V domains shown)
VH: B12 VH
VL: B12 VL with A24R, S97A
B14: hGPN18-2_H2L3 VL V56A (antibody, V domains shown)
VH: B12 VH
VL: B12 VL with A24R, V56A
B15: hGPN18-2_H2L3 VL R59A (antibody, V domains shown)
VH: B12 VH
VL: B12 VL with A24R, R59A
B16: hGPN18-2_H2L3 VL T102A (antibody, V domains shown)
VH: B12 VH
VL: B12 VL with A24R, T102A
B17: hGPN18-2_H2L3 VL Y37A (antibody, V domains shown)
VH: B12 VH
VL: B12 VL with A24R, Y37A
B18: hGPN18-2_H2L3 VL S57A (antibody, V domains shown)
VH: B12 VH
VL: B12 VL with A24R, S57A
B19: hGPN18-2_H2L3 VL S26A (antibody, V domains shown)
VH: B12 VH
VL: B12 VL with A24R, S26A
B20: hGPN18-2_H2L3 VL T28A (antibody, V domains shown)
VH: B12 VH
VL: B12 VL with A24R, T28A
B21: hGPN18-2_H2L3 VL S25A (antibody, V domains shown)
VH: B12 VH
VL: B12 VL with A24R, S25A
B22: hGPN18-2_H2L3 VL S61A (antibody, V domains shown)
VH: B12 VH
VL: B12 VL with A24R, S61A
B23: hGPN18-2_H2L3 VL S32A (antibody, V domains shown)
VH: B12 VH
VL: B12 VL with A24R, S32A
B24: hGPN18-2_H2L3 VL T36A (antibody, V domains shown)
VH: B12 VH
VL: B12 VL with A24R, T36A
B25: hGPN18-2_H2L3 VL V99A (antibody, V domains shown)
VH: B12 VH
VL: B12 VL with A24R, V99A
B26: hGPN18-5_H2L2 (antibody, V domains shown)
VH: QVQLVQSGAEVKKPGASVKVSCKASGYTFTTYWMNWVRQAPGQGLEWIGAINPSNDYTEYNQKFKDRATMTADTSTSTVYMELSSLRSEDTAVYYCGRSYSPDYWGQGTTVTVSS
VL: DIQMTQSPSSLSASVGDRVTITCKASQNVDNHVAWFQQKPGKAPKALIYSASYRYSGVPDRFSGSGSGTDFTLTISSLQPEDFATYFCQQYKSYPFTFGGGTKLEIK
notes: humanized; also called hGPN18-5_VH2+VL2
B27: hGPN18-5_H2L3 (antibody, V domains shown)
VH: B26 VH
VL: B26 VL with F36H, S63T, T85D
notes: humanized; also called hGPN18-5_VH2+VL3; GPN18-5-VH2+VL3
B28: hGPN18-5_H1L2 (antibody, V domains shown)
VH: B26 VH with A68V
VL: B26 VL
notes: humanized; also called hGPN18-5_VH1+VL2
B29: hGPN18-5_H2L1 (antibody, V domains shown)
VH: B26 VH
VL: B26 VL with D60S
notes: humanized; also called hGPN18-5_VH2+VL1
B30: hGPN18-5_H1L3 (antibody, V domains shown)
VH: B26 VH with A68V
VL: B26 VL with F36H, S63T, T85D
notes: humanized; also called hGPN18-5_VH1+VL3; GPN18-5-VH1+VL3
B31: hGPN18-5_H3L2 (antibody, V domains shown)
VH: B26 VH with T69I, T74K
VL: B26 VL
notes: humanized; also called hGPN18-5 VH3+VL2

Target: T1, recombinant human soluble gpNMB …
Test: antigen ELISA

Binder	EC50
B1	0.515 nM
B2	3.55 nM
B3	0.373 nM
B4	2.79 nM
B5	4.8 nM
B6	0.406 nM
B7	1.21 nM
B8	0.993 nM
B9	0.448 nM
B10	32.5 nM
B11	3.55 nM

Target: T1, recombinant human soluble gpNMB …
Test: antigen ELISA
Remark: another data set of the same source

Binder	EC50
B12	4.73 nM
B13	3.29 nM
B14	2.99 nM
B15	2.36 nM
B16	4.73 nM
B17	27.1 nM
B18	3.14 nM
B19	3.14 nM
B20	2.91 nM
B21	3.76 nM
B22	3.63 nM
B23	8.67 nM
B24	4.74 nM
B25	9.93 nM

Target: T1, recombinant human soluble gpNMB …
Test: antigen ELISA, vs hGPN18-2_H2L3

Binder	Relative binding activity
B12	1.04
B13	1.04
B14	1.07
B15	1.11
B16	0.81
B17	0.37
B18	1.05
B19	1.03
B20	1.05
B21	1.01
B22	0.94
B23	0.92
B24	1.06
B25	0.81

Target: T2, human gpNMB (Human Osteoactivin, …)
Test: SPR Biacore 8K, antibody captured on protein A, gpNMB as analyte

Binder	Kd	koff	kon
B26	763 nM	0.00403 s⁻¹	5280 M⁻¹ s⁻¹
B27	190 nM	0.00148 s⁻¹	7780 M⁻¹ s⁻¹
B28	423 nM	0.00396 s⁻¹	9380 M⁻¹ s⁻¹
B29	661 nM	0.00454 s⁻¹	6870 M⁻¹ s⁻¹
B30	214 nM	0.00153 s⁻¹	7150 M⁻¹ s⁻¹
B31	548 nM	0.00436 s⁻¹	7950 M⁻¹ s⁻¹

Target: T1, recombinant human soluble gpNMB …
Test: antigen ELISA, vs hGPN06-1_H1L1

Binder	Relative binding activity
B1	1.26
B2	1.06
B3	1.09
B4	0.51
B5	0.54
B6	1.1
B7	1.08
B8	0.89
B9	1.11
B10	0.09
B11	1.4
